The text below walks through data of patent US11414648B2, “Methods and compositions for production of fallopian tube epithelium” (CEDARS-SINAI MEDICAL CENTER, priority 2017, dated 2022).

Common to all, as to type: cell-based
In test [1] the test system is human iPSCs. As to the kind of experiment: Differentiation of human iPSCs into mesoderm (qPCR/immunocytochemistry of MIXL1, BRACHYURY). As to conditions: 100 ng/ml activin A and 3 μM CHIR99021 used together; iPSC line 87iCTR-n3; peak at day 2. Here is the method:
Human iPSCs were split onto Matrigel-coated plates, and cultured in mTeSR®1 medium until 80% confluent. Three intermediate protocols were compared, according to Mae et al. (2013), Xia et al. (2013), and Takasato et al. (2014). […]
Total cellular RNA was isolated using Qiagen RNeasy Mini kit according to the manufacturer's recommendations (Qiagen). Of RNeasy-treated total RNA (1 μg) was used for cDNA synthesis using the Quantitect Reverse Transcription Kit for cDNA synthesis for PCR (Qiagen). […]

In test [2] the test system is human iPSCs. As to the kind of experiment: Differentiation of mesoderm into intermediate mesoderm (IM) (marker expression). As to conditions: for transient upregulation of BRACHYURY and MIXL1 seen during gastrulation: BMP4 vs BMP7 treatment, 87iCTR-n3 iPSC line. The method, then:
(§1) Human iPSCs were split onto Matrigel-coated plates, and cultured in mTeSR®1 medium until 80% confluent. Three intermediate protocols were compared, according to Mae et al. (2013), Xia et al. (2013), and Takasato et al. (2014). The final protocol that achieved best efficiency and results for creating fallopian tube epithelium was a modified Mae et. al., (2013) protocol, as defined below. • Day 0-2: Cells were exposed to 100 ng/ml human recombinant activin A (Stemgent) and 3 μM CHIR99021 (Cayman Chemicals) to differentiate towards mesoderm, and cultured in DMEM/F12 (Gibco)+Glutamax (Invitrogen) supplemented with 500 U/ml penicillin streptomycin (Gibco) and 2% fetal bovine serum (FBS) with addition of 10 μM ROCK inhibitor Y-27632 (Stemgent). • Day 2-4: To differentiate towards IM, media was changed to DMEM/F12 (Gibco)+Glutamax (Invitrogen) supplemented with 0.1 mM non-essential amino acids (Invitrogen), 500 u/ml penicillin/streptomycin (Gibco), 0.55 mM 2-mercaptoethanol, 10% KOSR (Invitrogen), 100 ng/ml BMP4 (R&D Systems), 3 μM CHIR99021 (Cayman Chemicals), and 10 μM ROCK inhibitor Y-27632 (Stemgent). • Day 4-6: Spheroids were collected from wells and re-plated per methods described below. To differentiate the spheroid cultures towards Müllerian epithelium, media was changed to Fallopian tube media (FTM) containing DMEM/F12 (Gibco)+500 u/ml penicillin/streptomycin (Gibco), and 10 ml reconstituted Ultroser G (15950-017, Pall) and 10 μM ROCK inhibitor Y-27632 (Stemgent). To the FTM, 100 ng/ml human recombinant WNT4 (R&D Systems) with or without 3 μM CHIR99021(Cayman Chemicals), 100 ng/ml human recombinant WNT3A (R&D Systems) with or without 3 μM CHIR99021 (Cayman Chemicals) were added. • Day 6-8: FTM was changed and 20 ng/ml human recombinant Follistatin (Peprotech), 1 ng/ml estrogen and 33 ng/ml progestrone were added.
(§2) Total cellular RNA was isolated using Qiagen RNeasy Mini kit according to the manufacturer's recommendations (Qiagen). Of RNeasy-treated total RNA (1 μg) was used for cDNA synthesis using the Quantitect Reverse Transcription Kit for cDNA synthesis for PCR (Qiagen). Real-time PCR was performed using the SYBR Green Supermix (BioRad). The levels of expression of respective genes were normalized to corresponding GAPDH values and are shown as fold change relative to the value of the control sample. All sample analyses were carried out in triplicate.
(§3) Monolayer cultures were grown on poly-1-lysine and ornithine coated glass coverslips. Cells were washed once with phosphate buffered saline (PBS) and fixed with 4% paraformaldehyde (PFA) in 1× PBS for 20 minutes and permeabilized in PBS containing 0.5% Triton X-100 (PBS-T) (Sigma) for 5 minutes at room temperature. […]

Test [3] relates to intermediate mesoderm (IM) cells derived from human iPSCs. In words: Differentiation of intermediate mesoderm into Müllerian duct / FTE precursor vs nephric duct (marker expression). The conditions noted are these: for expression of kidney markers SIX2 and FOXD1: qPCR, relative to iPSC day 0, 87iCTR-n3. Here is the method: as §1, §2, §3

With `Cc1c[nH]c(-c2cnc(NCCNc3ccc(C#N)cn3)nc2-c2ccc(Cl)cc2Cl)n1` [CHIR99021, reference compound], the “mesoderm induction (MIXL1 and BRACHYURY)” value in the test on human iPSCs [1] is “rapidly and efficiently specified human iPSCs (line 87iCTR-n3) into mesoderm”.

B1: BMP4: BMP4 growth factor (R&D Systems) (protein, UniProt P12644 293-408, looked up)
Bone morphogenetic protein 4: SPKHHSQRARKKNKNCRRHSLYVDFSDVGWNDWIVAPPGYQAFYCHGDCPFPLADHLNSTNHAIVQTLVNSVNSSIPKACCVPTELSAISMLYLDEYDKVVLKNYQEMVVEGCGCR
As for B1, in the test on human iPSCs [2] (100 ng/ml, day 2-4, compared with BMP7 of Mae et al protocol), the “mesoderm differentiation into IM, based on expression of early IM markers PAX2, OSR1 and GATA3” value is “optimal mesoderm differentiation into IM”. The “transient upregulation of BRACHYURY and MIXL1 seen during gastrulation” value with human iPSCs [2] is on record as “expected transient upregulation”. In the test with human iPSCs [2] (differentiation protocol that included BMP4, 87iCTR-n3), the “expression of endoderm-marker SOX17 and ectoderm-marker NCAM” value is listed as “no to very low detectable expression levels”.

B2: BMP7: Bone Morphogenetic Protein used in the Mae et al (2013) protocol (protein, UniProt P18075 293-431, looked up)
Bone morphogenetic protein 7: STGSKQRSQNRSKTPKNQEALRMANVAENSSSDQRQACKKHELYVSFRDLGWQDWIIAPEGYAAYYCEGECAFPLNSYMNATNHAIVQTLVHFINPETVPKPCCAPTQLNAISVLYFDDSSNVILKKYRNMVVRACGCH
Consider B2, for which, in the test with human iPSCs [2], the “transient upregulation of BRACHYURY and MIXL1 seen during gastrulation” value was “not recapitulated”.

B3: activin A: human recombinant activin A (Stemgent), growth factor (protein, UniProt P08476 311-426, looked up)
Inhibin beta A chain: GLECDGKVNICCKKQFFVSFKDIGWNDWIIAPSGYHANYCEGECPSHIAGTSGSSLSFHSTVINHYRMRGHSPFANLKSCCVPTKLRPMSMLYYDDGQNIIKKDIQNMIVEECGCS
modifications: Inhibin beta A chain activin A homodimer
For the molecule B3, the “mesoderm induction (MIXL1 and BRACHYURY)” value in the test with human iPSCs [1] was “rapidly and efficiently specified human iPSCs (line 87iCTR-n3) into mesoderm”.

B4: WNT3A: human recombinant WNT3A (R&D Systems) (protein, UniProt P56704 19-352, looked up)
Protein Wnt-3a: SYPIWWSLAVGPQYSSLGSQPILCASIPGLVPKQLRFCRNYVEIMPSVAEGIKIGIQECQHQFRGRRWNCTTVHDSLAIFGPVLDKATRESAFVHAIASAGVAFAVTRSCAEGTAAICGCSSRHQGSPGKGWKWGGCSEDIEFGGMVSREFADARENRPDARSAMNRHNNEAGRQAIASHMHLKCKCHGLSGSCEVKTCWWSQPDFRAIGDFLKDKYDSASEMVVEKHRESRGWVETLRPRYTYFKVPTERDLVYYEASPNFCEPNPETGSFGTRDRTCNVSSHGIDGCDLLCCGRGHNARAERRREKCRCVFHWCCYVSCQECTRVYDVHTCK
In the case of B4, the “decreased levels of WT1 and OVGP1 compared to WNT4 treatment” value in test [3] (WNT3A treatment (nephric duct differentiation) vs WNT4) is on record as ~10 fold. In addition, the “expression of kidney markers SIX2 and FOXD1” value in test [3] was “increased expression”.

B5: WNT4: human recombinant WNT4 (R&D Systems) (protein, UniProt P56705 23-351, looked up)
Protein Wnt-4: SNWLYLAKLSSVGSISEEETCEKLKGLIQRQVQMCKRNLEVMDSVRRGAQLAIEECQYQFRNRRWNCSTLDSLPVFGKVVTQGTREAAFVYAISSAGVAFAVTRACSSGELEKCGCDRTVHGVSPQGFQWSGCSDNIAYGVAFSQSFVDVRERSKGASSSRALMNLHNNEAGRKAILTHMRVECKCHGVSGSCEVKTCWRAVPPFRQVGHALKEKFDGATEVEPRRVGSSRALVPRNAQFKPHTDEDLVYLEPSPDFCEQDMRSGVLGTRGRTCNKTSKAIDGCELLCCGRGFHTAQVELAERCSCKFHWCCFVKCRQCQRLVELHTCR
B5: the “expression of fallopian tube precursor (Müllerian duct) markers WT1 and OVGP1” value in test [3] (qPCR and immunocytochemistry, 100 ng/ml WNT4 on day 4 followed by 20 ng/ml Follistatin on day 6, WNT4/CHIR compared to WNT4 alone) is “upregulated expression over time”. The “expression of kidney markers SIX2 and FOXD1” value in test [3] was “lack of expression”.
